Data: patent US20080153749

Columns and labels:
[1] = target: T1, full-length HTm4 protein (human, recombinant, His tag cleaved with Factor Xa)
T1 chain: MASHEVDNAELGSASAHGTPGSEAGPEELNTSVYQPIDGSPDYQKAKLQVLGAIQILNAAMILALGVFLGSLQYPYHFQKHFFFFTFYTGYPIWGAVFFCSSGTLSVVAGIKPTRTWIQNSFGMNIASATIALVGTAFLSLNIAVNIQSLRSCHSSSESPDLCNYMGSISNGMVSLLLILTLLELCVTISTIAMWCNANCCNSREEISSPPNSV

[2] = target: cdk2.cyclin A complex (recombinant, Upstate), P24941

B1: KAP (wild-type, full-length KAP protein) (protein)
chain: MKPPSSIQTSEFDSSDEEPIEDEQTPIHISWLSLSRVNCSQFLGLCALPGCKFKDVRRNVQKDTEELKSCGIQDIFVFCTRGELSKYRVPNLLDLYQQCGIITHHHPIADGGTPDIASCCEIMEELTTCLKNYRKTLIHCYGGLGRSCLVAACLLLYLSDTISPEQAIDSLRDLRGSGAIQTIKQYNYLHEFRDKLAAHLSSRDSQSRSVSR
[1]
  Km of KAP phosphatase activity in the presence of HTm4: A parallel increase in Km (to 8.33 µM) was also observed
  Vmax of KAP phosphatase activity in the presence of HTm4: the Vmax of KAP phosphatase activity increased dramatically to 17.5 nM/min
  dephosphorylating activity of KAP toward phosphorylated cdk2: HTm4 increases the dephosphorylating activity of KAP toward phosphorylated cdk2 by more than 6-fold
[2]
  Km of KAP phosphatase activity in the absence of HTm4 (substrate active cdk2.cyclin A): Vmax and Km for the samples in the presence and absence of HTm4 are 17.5, 1.30 nM/min, and 8.33, 2.68 µM, respectively
  Vmax of KAP phosphatase activity in the absence of HTm4 (substrate active cdk2.cyclin A): Vmax and Km for the samples in the presence and absence of HTm4 are 17.5, 1.30 nM/min, and 8.33, 2.68 µM, respectively
